Entries after “also recorded” stand apart in the source; their conditions may differ.
Assays:
Format in all cases: in vivo, human
[1] = test system: patients with type 2 diabetes mellitus (T2DM); assay: C-peptide (OGTT) in clinical study of ACZ885 in T2DM patients on metformin; conditions: dose escalation, Week 4 post-dose, versus placebo
Excerpt: In the beta cells of the pancreas, the proinsulin molecule is cleaved to form insulin and C-Peptide. C-Peptide, a polypeptide consisting of 31 amino acids, is stored in the secretory granules of the beta cells and released into circulation in equimolar amounts with insulin. The determination of C-Peptide provides an assessment of endogenous insulin secretory reserves in patients with diabetes mellitus and is considered a more reliable indicator of insulin secretion than insulin itself. The ADVIA Centaur C-Peptide assay is a two-site sandwich immunoassay using direct chemiluminescent technology, which uses constant amounts of two antibodies. The first antibody, in the Lite Reagent, is a monoclonal mouse anti-C-Peptide antibody labeled with acridinium ester. The second antibody, in the Solid Phase, is a monoclonal mouse anti-C-Peptide antibody. Streptavidin in the Solid phase is covalently coupled. A direct relationship exists between the amount of C-Peptide present in the patient sample and the amount of relative light units (RLUs) detected by the system. The method has an inter-assay precision of 1.69-1.81% CV, and an intra-assay precision of 3.7-4.1% (determined by assaying 20 replicate assays of a sample then evaluating the coefficient of variation). Accuracy is evaluated by comparison with College of American Pathologists (CAP) Ligand. […]

[2] = test system: patients with type 2 diabetes mellitus (T2DM); assay: Proinsulin in clinical study of ACZ885 in T2DM patients on metformin; conditions: Week 4 post-dose, versus placebo
Procedure: A multi center, randomized, double blind, placebo-controlled, dose escalation study of the safety, tolerability, pharmacokinetics and pharmacodynamics of ACZ885 administered intravenously to patients with type 2 diabetes mellitus. The aim of the study is to compare the pharmacokinetic and pharmacodynamic effects of five doses (i.v. administration) of ACZ885 with placebo in patients with type 2 diabetes mellitus (T2DM). […] OGTT was administered at Baseline, 4 and 12 wk post-dose. The subsequent cohorts were included in the evaluation of pharmacodynamic, pharmacokinetis, pharmacogenomics and pharmacogenetics. • Cohort 2 (n=90; 1:1=ACZ885:Plb): received a single dose of ACZ885 (10 mg/kg) or placebo. • Cohort 3 (n=96) received a single dose of ACZ885 0.1, 0.3, 1.5 mg/kg or placebo (1:1:1:1). • Cohort 4 (n=30; 2:1=ACZ885:P1b) received a single dose of ACZ885 (0.03 mg/kg) or placebo. The study was designed to follow the patients for 24 weeks (168 days) after the single intravenous (i.v.) administration. An analysis of covariance (ANCOVA) with treatment as the classification variable and baseline as the covariate will be used for the comparison of treatments with respect to these parameters.

[3] = test system: patients with type 2 diabetes mellitus (T2DM); assay: Glucagon (OGTT) in clinical study of ACZ885 in T2DM patients on metformin; conditions: dose escalation, Week 4 post-dose, versus placebo
Excerpt: Glucagon is a hormone secreted by the alpha cells of the pancreatic islets of Langerhans. It is secreted in response to hypoglycemia and increases the blood glucose. As serum glucose levels rise in the blood, glucagon is inhibited by a negative feedback mechanism. The Millipore/LINCO Glucagon Radioimmunoassay kit utilized I^125 labeled glucagon and glucagon antiserum to determine the level of glucagon in plasma by the double antibody/PEG technique. The antibody is specific for pancreatic glucagon. A standard curve is set up with increasing concentrations of standard unlabeled antigen and from this curve the amount of antigen in unknown samples can be calculated. The method has an inter-assay precision of 7.3-13.5% CV, and an intra-assay precision of 4.0-6.8% (determined by assaying replicate assays then evaluating the coefficient of variation). Accuracy is evaluated by comparison with College of American Pathologists (CAP) Ligand. A multi center, randomized, double blind, placebo-controlled, dose escalation study of the safety, tolerability, pharmacokinetics and pharmacodynamics of ACZ885 administered intravenously to patients with type 2 diabetes mellitus. The aim of the study is to compare the pharmacokinetic and pharmacodynamic effects of five doses (i.v. administration) of ACZ885 with placebo in patients with type 2 diabetes mellitus (T2DM). […]

B1: ACZ885: anti-IL1β antibody, also referred to as Canakinumab; variable domains shown in SEQ ID NO:1 (VH) and SEQ ID NO:2 (VL) (antibody, V domains shown)
VH: QVQLVESGGGVVQPGRSLRLSCAASGFTFSVYGMNWVRQAPGKGLEWVAIIWYDGDNQYYADSVKGRFTISRDNSKNTLYLQMNGLRAEDTAVYYCARDLRTGPFDYWGQGTLVTVSS
VL: EIVLTQSPDFQSVTPKEKVTITCRASQSIGSSLHWYQQKPDQSPKLLIKYASQSFSGVPSRFSGSGSGTDFTLTINSLEAEDAAAYYCHQSSSLPFTFGPGTKVDIK
modifications: homo sapiens
OGTT C-peptide AUC0-4 h [1]: Positive trends consistent with dose escalation; also recorded: positive trend at Week 4 post-dose, albeit not statistically significant | proinsulin [2]: positive trend at Week 4 post-dose, albeit not statistically significant | OGTT glucagon AUC0-4 h [3]: Positive trends consistent with dose escalation; also recorded: positive trend at Week 4 post-dose, albeit not statistically significant

Source: patent US20130122008A1, “Anti-IL 1- ß Antibody Combination Therapy” (NOVARTIS AG, priority 2009, published 2013)
